# Experiment: Payloads added to the reservoir: Stokes' diameter
# Assay type: physicochemical
substance,measurement,value
Adalimumab,Stokes' Diameter,10 nm
